Test results as given in a protein production outcome set (Wang et al. 2014).

Experiment: label from the status in PepcDB records
For “HMARSLYPLGVSRSLPPYRRTFNHQTFIFVKSILRLGVSMEEEEFDIREALANGEHLEKILIMAKYDESVLKKLIELLDDDLWTVVKNAISIIMVIAKTREDLYEPMLKKLFSLLKKSEAIPLTQEIAKAFGQMAKEKPELVKSMIPVLFANYRIGDEKTKINVSYALEEIAKANPMLMASIVRDFMSMLSSKNREDKLTALNFIEAMGENSFKYVNPFLPRIINLLHDGDEIVRASAVEALVHLATLNDKLRKVVIKRLEELNDTSSLVNKTVKEGISRLLLLEGHSSS”, the protein production was “not failed”.
In the case of “HMPSVIVVGGQWGDEGKGSIVAYLSLHDEPEIIARGGVGTNAGHSVVINGKKYAVRQIPTGFMQTKARLLIGAGVLVDPEVFFHELEQLKDFNVKDRVGIDYRCAIIEEKHKQLDRTNGYLHGKIGTTGSGCGPANADRVMRKAKQAKDVKELEPYLTDVAQEINDALDEGSLVLVEGTQGFGLSLYYGTYPYVTSKDVTASSVAADVGIGPTRVDEVIVVFKSFPTRVGAGPFPTEMPMEEADRLGLVEYGTVTGRRRRVGWFDFEMARYSARINGATMLAVTMLDKYDKEAFGVTDYDKLPRKAKEFIEEIEERVGVPVGLIKTGPELEHIIDRRDTI”, the protein production is reported as “not failed”.
In the case of “HNESIRYLIVPGWQGSPDDHWQAHWQNSLPNSTRVEQADWLKPRREDWVGELQRTIAAQSTPVILIAHSLGCVTVAHWAQLAPLETLRQVQGALLVAPADVERPNCPPALRNFAPIPADLLPFPTQVVSSDNDPAVSSQRAIEMARHWGAELGFLSQAGHINVKSGHQRWEQGFAYLYRLQNRLEQ”, the protein production is reported as “failed”.
For “HPQYIVFCDFDETYFPHTIDEQKQQDIYELEDYLEQKSKDGELIIGWVTGSSIESILDKMGRGKFRYFPHFIASDLGTEITYFSEHNFGQQDNKWNSRINEGFSKEKVEKLVKQLHENHNILLNPQTQLGKSRYKHNFYYQEQDEINDKKNLLAIEKICEEYGVSVNINRCNPLAGDPEDSYDVDFIPIGTGKNEIVTFMLEKYNLNTERAIAFGDSGNDVRMLQTVGNGYLLKNATQEAKNLHNLITDSEYSKGITNTLKKLIGFMRR”, the protein production was “failed”.
In the case of “HQIVHVRGDSETDLEALFNAVMNPKTANVPQTVPMRLRKLPDSFFKPPEPKSHSRQASTDAGTAGALTPQHVRAHSSPASLQLGAVSPGTLTPTGVVSGPAATPTAQHLRQSS”, the protein production is reported as “failed”.
For “HRAQRQQMTVLRGDAQSIDIIDLQTFIDSFEEHIWVKNTEGVYTICNQSVEKAWDLPRSDIVGKTDEDLFGKAIADIFLNGDRLAIEAGAPIIVAECLDGENKNNHLWLETLKLPALTPDGELAGVIGMTRNISKHKEVEEQLTLATNVFKHSF”, the protein production was “failed”.
With “HRYIPTLFFHGWGSSYHAETHMADAIVKAGKTQTIVRAMVAKNGTVTLKGHFRSGDYRPIVEVNFANNRSSDYPTVGRWAKNVVVALQRTYGITSFNMVGHSMGNMAITYYLLANAQNKRLPQLRQQVAIAGHFNGILGMDDSPNQMTLNAAGRPNKLRPAYRQLLGLRRVYPRQQVRVLNIYGDKGDGTHSDGSVSNASSRSLRYLVAARARSYREVKLTGKHAQHSQLHENAQVDRLLIDFLWPTH” the protein production was “not failed”.
In the case of “HSEPSHQSKAVVELPHKQGMARLAAGLLHPDMTIYLDAGTSTLEIVPHIIALSGMTVVTNDFGVVNALADAAHVDVIHTGGLLDHPNRSSVGGLAAATLRQLATDVAFMSTSSWDLQRGTTTPSALKVEVKQAAMQSASQTVLVATSSKY”, the protein production is reported as “failed”.
With “HTYKSLFVAPCDAGVKSIKDLKGKSVAFVDPASTSGGLMPTYMVKKETGMMPQQFFGKFTYSGSHDAAELAVKNKTVDAAADNDITYEKMLAKGLITKETNCVVKESDPLPGSPLVYRKDLPAATKKKIRDAILNAH” the protein production was “failed”.
In the case of “IDKKLTTLADLFRPPIDLMHKGSFETAKECGQMQNKWLMINIQNVQDFACQCLNRDVWSNEAVKNIIREHFIFWQVYHDSEEGQRYIQFYKLGDFPYVSILDPRTGQKLVEWHQLDVSSFLDQVTGFLGEHGQLDGLSSS”, the protein production is reported as “not failed”.
For “IDPVMVAAFEGWNDAGDAASTAVAHLDREWKGEVFAALDAEDYYDFQVNRPTVWLDGGVRKITWPTTRLSVVRVGGEKPRDLVLVRGIEPSMRWRSFCNELLAFAHELGVELVVVLGALLGDTPHTRPVPVSGVTSDPDLARTMDLEETKYEGPTGIVGILQEACTHAGVPAVSLWAAVPHYVSQPPNPKATLALLNRLEDLIDVRIPLGELPEDARAWQVGVDQLAAEDSEVAEYVQSLEEARDTA”, the protein production was “not failed”.
With “IDRSTHFALRYRTLCHQQAQFKSPLRGLRGTRASLIPHQLHIAAEVGNRVNPRVLLADEVGLGKTIEAGMILQNQLFAEKVQRVLIIVPETLQHQWLVEMLRRFNLHFALFDEERCNDFDLDAVNPFTTESLIICSLNWLETHPNRVELVLNAQFDCLIVDEAHHLVWSETSPSTAYLLVEQLARIIPSVLLLTATPE” the protein production was “failed”.
For “IEEVYEATLDAIQGALNCDRASILLFDEAGTMRFVAARGLSEHYQRAVDGHSPWITGANEPEPIFVENVDDAEFSRELKESIVGEGIAALGFFPLVTEGRLIGKFMTYYDRPHRFADSEIGMALTIARQLGFSIQRMRAEYARRQAEE”, the protein production was “not failed”.
In the case of “IEPEYFGEDAAENILIGWGSLEGAIKEAVNDLNKEGKEKYAALIFGDVWPLPEKLLREKASKAKTLIDVEQNAQGQLADIIREGTGIEVDKKILKYDGRPIMASYIVGRIKE”, the protein production is reported as “not failed”.
For “IESASDMIAAFGKDQRFITFNEAYQREFKRLFDKSISINMSLEEAFNNAPENKKKLVQSWKESLQRDEETKNIEVNTEQEKTIYEMTSKLIQNGDNEIKGVVHSVRNIT”, the protein production was “failed”.
In the case of “IEVSYHTPDGVPGVVMTTPKLDDGTPFPTLYYLTEPRLTAEASRLEVAHVMKWMTDRLHSDEELRQDYERAHEYFLAKRNALEDLGTDFSGGGMPDRVKCLHVLIAYALAEGPDHFRLGTEAVALA”, the protein production is reported as “failed”.
In the case of “IGPSSSHTMGPMTAANVFRDHVDQLVSQTPDDLNYRVYCVLKGSLAFTGRGHATDRAVALGLHGHSPVSLAGEDVNALTAKLWATDTLQLTSGREIGFNPEDDIVFDKSDPLPQHPNGMIFYLLDEEGKKILSETFFSIGGGFICTLAEINQ”, the protein production is reported as “not failed”.
In the case of “IKATYETFSSPNGHGEGRGYLVMPQKKTIKSPTVLVIHENRGLNPYIKDVARRLAKDGFIAFAPDALYPLGGYPGNDDEGRAMQKEMDRAKIEQDFIAAAKFIKQHEHGNGKLGAVGFCFGGYVVNMLAAVMPNELDAGVPFYGTPAAEEIQKQVKGPLMLHFAGLDKRVNDTWPSYEQQLIASGAKYQALMYENVNHGFHNDSTARYAPEEAALAWERTLAFFKEHL”, the protein production is reported as “failed”.
In the case of “IKAVFDPDNRLNPGKICPPEGIDAPMMKVDAAKRGTWDRQIPIAVRSSWRGAMECNGNGLCFNFDVKSPMCPSMKVSNQRIHSPKGRATLVREWLRLLADRGVDPNQLEKALPEQGVSLRSLVARTRNSWHARKGEYDFSHEVKEAMSGCLACKACSTQCPIKIDVPEFRSRFLQLYHSRYLRPVRD”, the protein production is reported as “failed”.
In the case of “IKKNVFNIFYLFLVLEELKGPVLYIVGTPIGNLEDITYRAIDVLKSVNVIFAEDTRVTSKLLSRYKINKKMISCNAVTENKKISLLLDYLAKGNSVAFVSDAGTPGLSDPGSLLVAAAFREGYKVCPIPGV”, the protein production is reported as “failed”.
With “ILIQINPLDNVAIVVNDHGLEKQTVIEEYQLTLVDDVPQGHKVLLKALKKDEAIIRYGEIIGYANADLEAGRWVNESVTRMPEA” the protein production was “failed”.
In the case of “IMDQDGRSMFADGSKVPFERTRLLLQRLAVPLRATPLRVTIVGHTSSGLMPERSDYNGWDLSSDRANSVRQILEREGLPGSHIFAVTGKADSQPLFPDDPSIAANRRVTITLMRESPALP”, the protein production is reported as “failed”.
In the case of “INRRRDSKQMTEHNLSVVNTATLYIVPTPIGNLGDITQRAIEVLKSVDLIAAEDTRHTGKLLSHFGIASQTFALHDHNEQHKADLLISKLQQGLSIALVSDAGTPLISDPGYHLVNRCRQANVNVVPLPGA”, the protein production is reported as “failed”.
For “IPGPGFTAGAQGSCSLRCGAQDGLCSCHPTCSGLGTCCEDFLDYCLEILPSSGSMMGGKDFVVQHLKWTDP”, the protein production was “not failed”.
For “IQNVLSYITEHFSEGMSLKTLGNDFHINAVYLGQLFQKEMGEHFTDYLNRYRVNYAKEELLQTKDNLTIIAGKSGYTDMAYFYRQFKKHTGETPNRYRKIHQ”, the protein production was “failed”.
With “IRQRKRAERALNDQLEFMRVLIDGTPNPIYVRDKEGRMLLCNDAYLDTFGVTADAVLGKTIPEANVVGDPALAREMHEFLLTRMAAEREPRFEDRDVTLHGRTRHVYQWTVPYGDSLGELKGIIGGWIDIT” the protein production was “failed”.
For “IRSIWENNGFGLMSSKTMTDFDYWISDFEKIGASQKEAEQLIVKAIEIAIDANARNYNYINAILKDWEQRGFKSVEEREAARKQKKTTKKQKSNTGHSDYDDLGF”, the protein production was “not failed”.
With “IRTHLNLPSDKKVIMYAPTWRDDEFVSKGKYLFELKIDLDNLYKELGDDYVILLRMHYLISNALDLSGYENFAIDVSNYNDVSELFLISDCLITDYSSVMFDYGILKRPQFFFAYDIDKYDKGLRGFYMNYMEDLPGPIYTEPYGLAKELKNLDKVQQQYQEKIDAFYDRFCSVDNGKASQYIGDLIHKDIKEQ” the protein production was “failed”.
In the case of “ISCSDPNPLDSYTRVPFEKTETDDGNGDGDGDGAGGLFEKGNGTDSKPYMIMNATQIRNMRSVLKSGMKVYFQLGADIDMAGIDDWQSLNGSGDFPYEIDFDGDSHVIKNFKCSAGDYPSFFGVLCGDCRNVGFVNASVSSARQGIGIITGYLGLKDKGNGNKTGRIVNCYTTGEVIGSGAAGGIAGVLANSYDGQESYIKNCYSNATVSDRAASGGKAGGIAGRKVGVGGFIENCYAYGAVSATKGGVGGILGQIDKSCDIAIKNSAAWSNLTGVDASSTVGRIVGVSASLGSYENCYACESIVLKVNEKTITASDESSATGTTFHGVAKSAEELGNIIVAWNPNLWKKGTNGYPIFQWSE”, the protein production is reported as “not failed”.
With “ISRRNQDMLLSVLDLEKMTVDDIMVPRSEIIGIDINDDWKSILRQLSHSPHGRIVLYRDSLDDAISMLRVREAWRLMSEKKEFTKETMLRAADEIYFVPEGTPLSTQLVKFQRNKKKVGLVVNEYGDIQGLVTVEDILEEIVGDFTTSMS” the protein production was “not failed”.
In the case of “ISTVSGKVERLISFDIAKRWYLRDIAERMYTSESLIKKKLQDENTCFSKILLASRMSMARRLLELRQIPLHTIAEKCGYSSTSYFINTFRQYYGVTPHQFAQHSPGT”, the protein production is reported as “failed”.
In the case of “IYGLVQRCVIIQKDDNGFGLTVSGDNPVFVQSVKEDGAAMRAGVQTGDRIIKVNGTLVTHSNHLEVVKLIKSGSYVALTVQGRPPGSPQIPLADSEVEPSVIGHMSPIMTSPHSPGASGNMERITSPVLMGEENNVVHNQK”, the protein production is reported as “failed”.
With “KAPNLYMTDTTGTYRYLYDVQAKYTILFFWDSQCGHCQQETPKLYDWWLKNRAKGIQVYAANIERKDEEWLKFIRSKKIGGWLNVRDSKNHTDFKITYDIYATPVLYVLDKNKVIIAKRIGYENLDDFLVQYEKSLKTK” the protein production was “not failed”.
For “KDADHIHHLIDQSLIAKGFQEILTNSLTKGAYNELLSKQEDAVPILNKLSEELAFMRPSLAFTGLETVAYNINRRQKNLKLFEWGKVYFKRGTKYNEYNRLSVFITGNQHAESWNTPSKTVDFFDMKAVVVQILEKLHIAVTQVQEIESNPLFSKGVIYKHAGKELVQFGYISQAALKATDVKQEVLFADFNADLLLELYSNKSKYKEIS”, the protein production was “not failed”.
For “KEAGSQIMKFEVQDASPTIATELNLVTGEQVYYIKRLRFIEDNAAQLEETWMSVARFPDLTVSHMQKSKFSYIENECGIKIIGTFETFSPTFPTPEIASILRISPRDPILKIQTQAVDSNSIPLDYSLLYSN”, the protein production was “failed”.
With “KEALEALVPVTIEVEVPFDLHRYVIGQKGSGIRKMMDEFEVNIHVPAPELQSDIIAITGLAANLDRAKAGLLERVKELQAEQEDRALRSFK” the protein production was “not failed”.
